Test: RP-HPLC: insulin percent purity
Assay type: physicochemical
Conditions: for Percent of insulin main peak: 2-8° C.
Protocol: For insulin, 20 μL was injected for each HPLC run.
The data were processed using Design-Expert® 7.0 (StatEase) and the “historical data” feature. Insulin percent purity was expressed as the percent of main insulin versus all insulin species.

regular insulin: mature human insulin, SEQ ID NOS: 103 and 104
Percent of insulin main peak (50 mM NaCl, pH 7.0, 0 months): 97.64%
Percent of insulin main peak (50 mM NaCl, pH 7.0, 0.25 months): 97.59%
Percent of insulin main peak (50 mM NaCl, pH 7.0, 0.5 months): 97.50%
Percent of insulin main peak (50 mM NaCl, pH 7.0, 1 month): 97.44%
Percent of insulin main peak (50 mM NaCl, pH 7.0, 3 months): 97.24%
Percent of insulin main peak (50 mM NaCl, pH 7.0, 5 months): 97.73%
Percent of insulin main peak (50 mM NaCl, pH 7.0, 9 months): 97.20%
Percent of insulin main peak (50 mM NaCl, pH 7.2, 0 months): 97.64%
Percent of insulin main peak (50 mM NaCl, pH 7.2, 0.25 months): 97.59%
Percent of insulin main peak (50 mM NaCl, pH 7.2, 0.5 months): 97.56%
Percent of insulin main peak (50 mM NaCl, pH 7.2, 1 month): 97.46%
Percent of insulin main peak (50 mM NaCl, pH 7.2, 3 months): 97.47%
Percent of insulin main peak (50 mM NaCl, pH 7.2, 5 months): 97.75%
Percent of insulin main peak (50 mM NaCl, pH 7.2, 9 months): 97.27%
Percent of insulin main peak (50 mM NaCl, pH 7.4, 0 months): 97.58%
Percent of insulin main peak (50 mM NaCl, pH 7.4, 0.25 months): 97.54%
Percent of insulin main peak (50 mM NaCl, pH 7.4, 0.5 months): 97.48%
Percent of insulin main peak (50 mM NaCl, pH 7.4, 1 month): 97.47%
Percent of insulin main peak (50 mM NaCl, pH 7.4, 3 months): 97.45%
Percent of insulin main peak (50 mM NaCl, pH 7.4, 5 months): 97.74%
Percent of insulin main peak (50 mM NaCl, pH 7.4, 9 months): 97.27%
Percent of insulin main peak (50 mM NaCl, pH 7.6, 0 months): 97.65%
Percent of insulin main peak (50 mM NaCl, pH 7.6, 0.25 months): 97.58%
Percent of insulin main peak (50 mM NaCl, pH 7.6, 0.5 months): 97.33%
Percent of insulin main peak (50 mM NaCl, pH 7.6, 1 month): 97.44%
Percent of insulin main peak (50 mM NaCl, pH 7.6, 3 months): 97.35%
Percent of insulin main peak (50 mM NaCl, pH 7.6, 5 months): 97.66%
Percent of insulin main peak (50 mM NaCl, pH 7.6, 9 months): 97.34%
Percent of insulin main peak (80 mM NaCl, pH 7.0, 0 months): 97.65%
Percent of insulin main peak (80 mM NaCl, pH 7.0, 0.25 months): 97.50%
Percent of insulin main peak (80 mM NaCl, pH 7.0, 0.5 months): 97.30%
Percent of insulin main peak (80 mM NaCl, pH 7.0, 1 month): 97.20%
Percent of insulin main peak (80 mM NaCl, pH 7.0, 5 months): 97.81%
Percent of insulin main peak (80 mM NaCl, pH 7.0, 9 months): 96.18%
Percent of insulin main peak (80 mM NaCl, pH 7.2, 0 months): 97.57%
Percent of insulin main peak (80 mM NaCl, pH 7.2, 0.25 months): 97.59%
Percent of insulin main peak (80 mM NaCl, pH 7.2, 0.5 months): 97.30%
Percent of insulin main peak (80 mM NaCl, pH 7.2, 1 month): 97.45%
Percent of insulin main peak (80 mM NaCl, pH 7.2, 3 months): 97.34%
Percent of insulin main peak (80 mM NaCl, pH 7.2, 5 months): 97.64%
Percent of insulin main peak (80 mM NaCl, pH 7.4, 0 months): 97.56%
Percent of insulin main peak (80 mM NaCl, pH 7.4, 0.25 months): 97.61%
Percent of insulin main peak (80 mM NaCl, pH 7.4, 0.5 months): 97.51%
Percent of insulin main peak (80 mM NaCl, pH 7.4, 1 month): 97.43%
Percent of insulin main peak (80 mM NaCl, pH 7.4, 3 months): 97.43%
Percent of insulin main peak (80 mM NaCl, pH 7.4, 5 months): 97.75%
Percent of insulin main peak (80 mM NaCl, pH 7.4, 9 months): 97.29%
Percent of insulin main peak (80 mM NaCl, pH 7.6, 0 months): 97.63%
Percent of insulin main peak (80 mM NaCl, pH 7.6, 0.25 months): 97.62%
Percent of insulin main peak (80 mM NaCl, pH 7.6, 0.5 months): 97.52%
Percent of insulin main peak (80 mM NaCl, pH 7.6, 1 month): 97.37%
Percent of insulin main peak (80 mM NaCl, pH 7.6, 3 months): 97.64%
Percent of insulin main peak (80 mM NaCl, pH 7.6, 5 months): 97.67%
Percent of insulin main peak (80 mM NaCl, pH 7.6, 9 months): 97.31%
Percent of insulin main peak (110 mM NaCl, pH 7.0, 0 months): 97.64%
Percent of insulin main peak (110 mM NaCl, pH 7.0, 0.25 months): 97.31%
Percent of insulin main peak (110 mM NaCl, pH 7.0, 0.5 months): 97.57%
Percent of insulin main peak (110 mM NaCl, pH 7.0, 1 month): 96.64%
Percent of insulin main peak (110 mM NaCl, pH 7.0, 3 months): 96.10%
Percent of insulin main peak (110 mM NaCl, pH 7.0, 5 months): 97.79%
Percent of insulin main peak (110 mM NaCl, pH 7.2, 0 months): 97.62%
Percent of insulin main peak (110 mM NaCl, pH 7.2, 0.25 months): 97.46%
Percent of insulin main peak (110 mM NaCl, pH 7.2, 0.5 months): 97.35%
Percent of insulin main peak (110 mM NaCl, pH 7.2, 3 months): 97.49%
Percent of insulin main peak (110 mM NaCl, pH 7.2, 5 months): 97.61%
Percent of insulin main peak (110 mM NaCl, pH 7.2, 9 months): 95.91%
Percent of insulin main peak (110 mM NaCl, pH 7.4, 0 months): 97.65%
Percent of insulin main peak (110 mM NaCl, pH 7.4, 0.25 months): 97.58%
Percent of insulin main peak (110 mM NaCl, pH 7.4, 0.5 months): 97.39%
Percent of insulin main peak (110 mM NaCl, pH 7.4, 1 month): 97.36%
Percent of insulin main peak (110 mM NaCl, pH 7.4, 3 months): 97.36%
Percent of insulin main peak (110 mM NaCl, pH 7.4, 5 months): 97.79%
Percent of insulin main peak (110 mM NaCl, pH 7.4, 9 months): 96.91%
Percent of insulin main peak (110 mM NaCl, pH 7.6, 0 months): 97.58%
Percent of insulin main peak (110 mM NaCl, pH 7.6, 0.25 months): 97.57%
Percent of insulin main peak (110 mM NaCl, pH 7.6, 0.5 months): 97.60%
Percent of insulin main peak (110 mM NaCl, pH 7.6, 1 month): 97.52%
Percent of insulin main peak (110 mM NaCl, pH 7.6, 3 months): 97.42%
Percent of insulin main peak (110 mM NaCl, pH 7.6, 5 months): 97.61%
Percent of insulin main peak (110 mM NaCl, pH 7.6, 9 months): 97.31%
Percent of insulin main peak (140 mM NaCl, pH 7.0, 0 months): 97.65%
Percent of insulin main peak (140 mM NaCl, pH 7.0, 0.25 months): 97.15%
Percent of insulin main peak (140 mM NaCl, pH 7.0, 1 month): 96.39%
Percent of insulin main peak (140 mM NaCl, pH 7.0, 3 months): 96.16%
Percent of insulin main peak (140 mM NaCl, pH 7.0, 9 months): 95.17%
Percent of insulin main peak (140 mM NaCl, pH 7.2, 0 months): 97.56%
Percent of insulin main peak (140 mM NaCl, pH 7.2, 0.25 months): 97.37%
Percent of insulin main peak (140 mM NaCl, pH 7.2, 1 month): 96.62%
Percent of insulin main peak (140 mM NaCl, pH 7.2, 3 months): 96.60%
Percent of insulin main peak (140 mM NaCl, pH 7.2, 9 months): 95.49%
Percent of insulin main peak (140 mM NaCl, pH 7.4, 0 months): 97.64%
Percent of insulin main peak (140 mM NaCl, pH 7.4, 0.25 months): 97.57%
Percent of insulin main peak (140 mM NaCl, pH 7.4, 0.5 months): 97.33%
Percent of insulin main peak (140 mM NaCl, pH 7.4, 1 month): 97.23%
Percent of insulin main peak (140 mM NaCl, pH 7.4, 3 months): 97.38%
Percent of insulin main peak (140 mM NaCl, pH 7.4, 5 months): 97.73%
Percent of insulin main peak (140 mM NaCl, pH 7.4, 9 months): 96.10%
Percent of insulin main peak (140 mM NaCl, pH 7.6, 0 months): 97.64%
Percent of insulin main peak (140 mM NaCl, pH 7.6, 0.25 months): 97.61%
Percent of insulin main peak (140 mM NaCl, pH 7.6, 0.5 months): 97.41%
Percent of insulin main peak (140 mM NaCl, pH 7.6, 1 month): 97.51%
Percent of insulin main peak (140 mM NaCl, pH 7.6, 3 months): 97.35%
Percent of insulin main peak (140 mM NaCl, pH 7.6, 5 months): 97.56%
Percent of insulin main peak (140 mM NaCl, pH 7.6, 9 months): 97.07%
insulin main peak percentage (long term storage at 2-8° C., […] m-cresol, 0.2% phenol): about 97%

From patent US20130011378A1, “Stable formulations of a hyaluronan-degrading enzyme” (priority 2011, published 2013)
